Measured values published in patent US20200247855A1, “THERAPY AND DIAGNOSTICS” (OXFORD UNIVERSITY INNOVATION LIMITED, priority 2017, published 2020).

Columns and labels:
[1] = target: T1, CCL8_HUMAN (human), P80075; assay: fluorescence polarisation; Kd1, two-site fit; settings: modification not given
T1 chain: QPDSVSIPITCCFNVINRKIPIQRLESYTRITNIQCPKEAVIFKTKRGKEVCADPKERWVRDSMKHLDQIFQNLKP

[2] = target: T1, CCL8_HUMAN (human), P80075; assay: fluorescence polarisation; Kd2, two-site fit; settings: modification not given
[3] = target: T1, CCL8_HUMAN (human), P80075; assay: FACS, inhibition of CCL8-647 binding to THP-1 cells; settings: modification not given
[4] = target: T2, CCL5_HUMAN (human), P13501; assay: BLI; settings: remark: other sources report otherwise
T2 chain: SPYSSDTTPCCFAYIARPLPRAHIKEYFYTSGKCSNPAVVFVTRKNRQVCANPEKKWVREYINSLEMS

Question: What does the source list for EDEDYEDFFKPVTAYF [P672_PEP-FITC]?
Answer: Kd [1]: 11.9 nM; Kd [2]: 252 nM

Question: Which IC50 [3] does the source give for EDEDYEDFFKPVTAYF [P672_PEP (peptide BK1.1)] here?
Answer: 4900 nM

B1: P974_AMBCA, A0A023FDY8 22-118 (protein)
chain: ENTQQEEQDYDYGTDTCPFPVLANKTNKAKFVGCHQKCNGGDQKLTDGTACYVVERKVWDRMTPMLWYECPLGECKNGVCEDLRKKEDCRKGNGEEK
Question: For B1, which Kd [4] is on record?
Answer: 160 nM
